This passage reports EC50 results from EP4682164A1 (Curogen Technology Co., Ltd., dated 2026).

What all share (assay): ELISA as in Example 8, cytokine coated on plate
Background: An ELISA detects its analyte on a solid surface through an enzyme-linked reagent.

Assay [1] concerns the target T1, human IL-17F (IL-17FF homodimer) (human, UniProt Q96PD4 31-163).
T1 construct: also called hIL-17F; hIL-17FF
T1 sequence (looked up): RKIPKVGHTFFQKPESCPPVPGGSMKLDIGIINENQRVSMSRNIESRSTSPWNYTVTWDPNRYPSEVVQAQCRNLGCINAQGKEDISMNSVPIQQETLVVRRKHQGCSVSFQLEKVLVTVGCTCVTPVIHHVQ

The target in the next assay is T2, murine TNFα (mouse, UniProt P06804 80-235).
T2 construct: also called mTNFα; mouse TNFα
T2 sequence (looked up): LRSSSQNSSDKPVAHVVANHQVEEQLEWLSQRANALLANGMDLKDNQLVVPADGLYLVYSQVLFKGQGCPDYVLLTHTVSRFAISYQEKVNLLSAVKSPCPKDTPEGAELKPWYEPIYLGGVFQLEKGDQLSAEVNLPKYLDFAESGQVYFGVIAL

Assay [2] addresses T3, human IL-17A (IL-17AA homodimer) (human, UniProt Q16552 20-155, limits assumed).
T3 construct: also called hIL-17A; hIL-17AA

T3 sequence (Q16552 20-155 limits assumed): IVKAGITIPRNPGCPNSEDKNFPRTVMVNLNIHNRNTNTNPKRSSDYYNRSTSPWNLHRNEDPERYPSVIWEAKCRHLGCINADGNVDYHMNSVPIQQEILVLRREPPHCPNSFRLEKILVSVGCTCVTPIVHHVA

B1: IL-17RA/RC-Fc-mTNFR2 (T1-mT4-35) (Fc fusion)
chain: LRLLDHRAPVCSQPGLNCTVKNSDCLDDSWIHPRNLTPSSPKDLQIQLHFAHTQQGDLVPVAHIEWTLQTDASILYLEGAELSVLQLDTNERLCVRFEFLSKLRHHHRRWRFTFSHFVVDPGQEYEVTVHHLPKPIPDGDPNHQSKNFLVPDCEHPRMKVTTPCMSSALPWLNVSADGDNVHLVLNVSEEQHFGLSLYWNQVQGPPKPRWHKNLTGPQIITLNHTDLVPCLCIQVWPLEPDSVRTNICPFREDPRAHQNLWQAARLRLLTLQSWLLDAPCSLPAEAALCWRAPGGDPCQPLVPPLSWENVTVDKVLEFPLLKGHPNLCVQVNSSEKLQLQECLWADSLGPLKDDVLLLETRGPQDNRSLCALEPSGCTSLPSKASTRAARLGEYLLQDLQSGQCLQLWDDDLGALWACPMDKYIHKTGIEGRMDRNTGRGGEEKKKEKEKEEQEERETKTPECPSHTQPLGVFLFPPKPKDTLMISRTPEVTCVVVDVSQEDPEVQFNWYVDGVEVHNAKTKPREEQFNSTYRVVSVLTVLHQDWLNGKEYKCKVSNKGLPSSIEKTISKAKGQPREPQVYTLPPSQEEMTKNQVSLTCLVKGFYPSDIAVEWESNGQPENNYKTTPPVLDSDGSFFLYSRLTVDKSRWQEGNVFSCSVMHEALHNHYTQKSLSLSLGKGGGGSGGGGSGGGGSLEVPAQVVLTPYKPEPGYECQISQEYYDRKAQMCCAKCPPGQYVKHFCNKTSDTVCADCEASMYTQVWNQFRTCLSCSSSCTTDQVEIRACTKQQNRVCACEAGRYCALKTHSGSCRQCMRLSKCGPGFGVASSRAPNGNVLCKACAPGTFSDTTSSTDVCRPHRICSILAIPGNASTDAVCAPESPTLSAIPRTLYVSQPEPTRSQPLDQEPGPSQTPSILTSLGSTPIIEQSTKGG
notes: The hTNFR2 ECD is replaced by the mouse TNFR2 ECD; also called hT1-mT4-35; T1-T4-35
Take B1: the results for the EC50 (in assay [1]; in the assay with murine TNFα; in assay [2]) were 0.0907 µg/mL, 0.071 µg/mL and 0.0803 µg/mL, respectively.
